Data on two substances can be found in article PMC11697773.

The target in assay [1] is human neonatal Fc receptor (FcRn) (human) (UniProt P55899). The assay can be described thus: BLI; Octet; biotinylated human FcRn on streptavidin-coated biosensors, antibody soluble; equilibrium binding; PBSA pH 5.6; tips regenerated in PBSA pH 7.4.
The target in assay [2] is human Fcγ receptor I (FcγRI) (human) (UniProt P12314). The assay is described as follows: BLI; Octet; biotinylated human FcγRI on streptavidin-coated biosensors, antibody soluble; equilibrium binding; PBSA pH 7.4; tips regenerated in 0.1 M glycine pH 3.5.
Chain of human Fcγ receptor I (FcγRI) (human) (P12314 16-292): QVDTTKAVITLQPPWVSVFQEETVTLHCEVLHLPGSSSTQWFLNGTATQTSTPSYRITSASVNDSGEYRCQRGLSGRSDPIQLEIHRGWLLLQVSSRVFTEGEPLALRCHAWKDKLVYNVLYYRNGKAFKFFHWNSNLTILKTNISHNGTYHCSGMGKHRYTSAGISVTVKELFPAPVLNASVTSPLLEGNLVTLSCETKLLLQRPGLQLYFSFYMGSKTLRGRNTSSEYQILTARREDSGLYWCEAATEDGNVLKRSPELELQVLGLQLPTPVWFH

Take “trastuzumab N297G + YTE + SEFL (aglycosylated variant) (antibody)”: the Kd (as a rule, a measure of binding affinity in units of concentration) in assay [1] was determined as 20.4 nM.
As to F5111 antibody, N297A, the Kd in assay [1] amounted to 132 nM; in assay [2], 105 nM.
